These results are taken from the Immune Epitope Database (IEDB).

Some results are limits rather than exact numbers.

One assay has as its target HLA-A*02:03. Nature of the assay: IEDB peptide-MHC binding, purified MHC/competitive/radioactivity; filed as Kd, often an IC50 or EC50 that approximates it; ≥ and ≤ were set here for values at or beyond the usual limits of such assays. The conditions noted are these: source organism: Vaccinia virus WR.
For KVLSIMAFIL, the Kd is 684 nM. Turning to LIKTLSPAHL, the dissociation constant Kd came to 356 nM. Still for that read-out and setting: to LILSNKLLYA belongs 122 nM; to LTGTFVTAFI, 596 nM; to NTGMGMYYPT, not below 21000 nM.

Turning to NTITTFIPI, the Kd was 988 nM. PLPSLEYGA: the Kd was found to be 18900 nM. For the sequence PLSPDTCLLA, the Kd came out at 9310 nM. Still for that read-out and setting: then QIFNIISYII, with 206 nM; and RLQMAGVEV, with 531 nM; and SAGFTATICL, with not below 20100 nM. Same read-out and setting: to SIDHCSSFIV belongs 772 nM; to TIESAKTKI, not below 54100 nM.

For TQFNFNGHT, the dissociation constant (Kd) turned out to be 14400 nM.

As to TQSGALEVLM, the Kd amounted to 15400 nM.

TVDVRNIVT: the Kd turned out to be 13100 nM. As for VAKCCSKTNT, the Kd is not below 21700 nM. VTGSYNLVDT: the Kd is not below 70400 nM. On the same count and under the same terms, then YLYTEYFLFL, with 1.32 nM.

Consider YVILKDPRIA, for which the Kd amounted to 355 nM. Turning to YVSVMNFIPI, the Kd was determined as 152 nM.

The next assay concerns the target HLA-A*02:06. Described as above. The conditions noted are these: source organism: Dengue virus 2 Jamaica/1409/1983.
Turning to ITLTAALLLL, the Kd turned out to be 27.4 nM.

Staying with this assay, now noted: source organism: Dengue virus 4 Philippines/H241/1956.
Take FTDPSSVAA: the Kd stood at 59.4 nM.

Still in this assay, the particulars now being: source organism: Lassa virus Josiah.
Take LNQAVNNLV: the Kd was 13600 nM.

The same assay, now with this note: source organism: Lymphocytic choriomeningitis virus (strain Armstrong).
For the sequence FMLNVSYLC, the Kd stood at 932 nM. For the sequence GTMPSLTMAC, the Kd amounted to 12100 nM.

The assay is the same for the next values; noted with them: source organism: Mammarenavirus guanaritoense.
On to YVIGLLPQS, for which the dissociation constant Kd was not below 48000 nM.

Staying with this assay, now noted: source organism: Mammarenavirus lassaense.
As to LLWDYMCIS, the Kd worked out at 408 nM.

On to LNCLSLLLSV, for which the Kd came to 250 nM.

The same assay, now with this note: source organism: Mammarenavirus machupoense.
On to LLDCIMYQS, for which the Kd worked out at 3280 nM.

Staying with this assay, now noted: source organism: Mammarenavirus whitewaterense.
YCHGILLKDV: the Kd was found to be 14900 nM.

The same assay, now with this note: source organism: SARS coronavirus Tor2.
FLVLIMLII: the dissociation constant Kd came out at 1350 nM. In the case of FTLLFQLCT, the Kd came to 140 nM. The same measure, in the same setting: to HAFLCLFLL belongs 1.22 nM; to KLMGHFSWWT, 99.1 nM. Turning to LIVNSVLLFL, the Kd is 10.8 nM. The same measure, in the same setting: then YLMCLSPLM, with 1.12 nM.

Still in this assay, the particulars now being: source organism: Vaccinia virus WR.
Take EILSNTTKTL: the dissociation constant Kd is not below 69800 nM. As for ELENKKVEYV, the Kd is not below 69800 nM. For the sequence ELTSNCTRT, the Kd was not below 46500 nM. On to FLDWIKDIMT, for which the Kd amounted to 140 nM. Still for that read-out and setting: then FTEEQQQSFM, with 833 nM; and FTELENKKV, with 6840 nM.

Turning to GVPHSVFIA, the Kd is 101 nM. Same read-out and setting: to IAGGVCYYL belongs 1410 nM; to IAVSVYGAI, 1100 nM. Still for that read-out and setting: then ILISLINSLV, with 151 nM; and IQYRQQLEL, with 41.3 nM. Still for that read-out and setting: then ITDQTVNICI, with 10400 nM. As for ITLILSNKL, the Kd was 396 nM. Still for that read-out and setting: to IVSHLRASTT belongs 173 nM; to IVVPVIDRL, 30.9 nM. As to IVYGRSNAIL, the Kd was 424 nM. Turning to KVLSIMAFIL, the Kd was 19.1 nM. Still for that read-out and setting: to LIKTLSPAHL belongs 10200 nM; to LILSNKLLYA, 36.1 nM; to LTGTFVTAFI, 413 nM. Turning to NTGMGMYYPT, the Kd is 11400 nM. On the same count and under the same terms, to NTITTFIPI belongs 7770 nM.

For the sequence PLPSLEYGA, the Kd is not below 42500 nM. For the sequence PLSPDTCLLA, the Kd is 19900 nM. Same read-out and setting: to QIFNIISYII belongs 743 nM. Still for that read-out and setting: then RLQMAGVEV, with 4110 nM; and SAGFTATICL, with 2410 nM. Take SIDHCSSFIV: the Kd worked out at 30.3 nM. The same measure, in the same setting: then TIESAKTKI, with not below 51100 nM.

Take TQFNFNGHT: the Kd was not below 10000 nM. With TQSGALEVLM, the Kd stood at 2230 nM. The same measure, in the same setting: to TVDVRNIVT belongs not below 54000 nM.

On to VAKCCSKTNT, for which the Kd was not below 40800 nM. Still for that read-out and setting: to VTGSYNLVDT belongs not below 69800 nM; to YLYTEYFLFL, 0.841 nM; to YVILKDPRIA, 1900 nM.

In the case of YVSVMNFIPI, the Kd amounted to 0.109 nM.

For another assay, the target named is HLA-A*24:02. The assay is described as above. To be noted: source organism: Dengue virus 2 Jamaica/1409/1983.
As for IYGAAFSGV, the Kd came to 398 nM.

Staying with this assay, now noted: source organism: Dengue virus 3 Martinique/1243/1999.
IKYTDRKWCF: the Kd was 2370 nM.

Still in this assay, the particulars now being: source organism: HIV-1 M:B_ARV2/SF2.
With RYPLTFGWCF, the Kd is 17 nM.

A further assay has as its target HLA-A*26:01. Described as above. To be noted: source organism: Dengue virus 1 Brazil/97-11/1997.
Take EISSMLNIM: the equilibrium dissociation constant (Kd) was determined as 657 nM. As to ETLMLLALIA, the Kd was not below 33600 nM. Still for that read-out and setting: then MVTLYLGVM, with 163 nM.

Staying with this assay, now noted: source organism: Dengue virus 1 Nauru/West Pac/1974.
EAEPPFGESY: the Kd is 669 nM.

Still in this assay, the particulars now being: source organism: Dengue virus 2 Jamaica/1409/1983.
Consider ESEMIIPKNF, for which the equilibrium dissociation constant (Kd) was not below 69700 nM.

On to VLVGVVTLY, for which the Kd turned out to be 13600 nM.

Still in this assay, the particulars now being: source organism: Dengue virus 3 Martinique/1243/1999.
With ELPETMETLL, the Kd came to 2370 nM. With TTEAILPEY, the Kd came out at 1180 nM.

The assay is the same for the next values; noted with them: source organism: Dengue virus 4 Philippines/H241/1956.
On to DTSEVHWNY, for which the Kd amounted to 41.6 nM. As for ENPYRTWAYH, the Kd is not below 69700 nM.

The same assay, now with this note: source organism: Lassa virus Josiah.
Consider HYLCLNCLT, for which the Kd was not below 77900 nM.

A further assay deals with HLA-A*30:02. The description is as above. To be noted: source organism: Dengue virus 2 Jamaica/1409/1983.
For the sequence VLVGVVTLY, the Kd came out at 58.3 nM.

Staying with this assay, now noted: source organism: Dengue virus 2 Peru/IQT2913/1996.
On to KKGKVVGLY, for which the Kd was 85.3 nM.

The same assay, now with this note: source organism: Dengue virus 3 Martinique/1243/1999.
Consider CGRGGWSYY, for which the Kd came out at 253 nM. The same measure, in the same setting: then TTEAILPEY, with not below 54300 nM.

The assay is the same for the next values; noted with them: source organism: Dengue virus 4 Dominica/814669/1981.
On to IGKMFESTY, for which the Kd was 338 nM.

The assay is the same for the next values; noted with them: source organism: Dengue virus 4 Philippines/H241/1956.
For the sequence DTSEVHWNY, the Kd stood at 3860 nM.

For the sequence LVQIENLEY, the Kd was found to be 1110 nM.

The assay is the same for the next values; noted with them: source organism: Lassa virus Josiah.
Take HYLCLNCLT: the Kd is 3020 nM.
